# B1: Docking protein 3 (Homo sapiens), Q7L591 (parent)
# chain: MTRGARLRSDARAQLNQLSLDGGTGSGQKGKCEEFPSSLSSVSPGLEAAALLLAVTMDPLETPIKDGILYQQHVKFGKKCWRKVWALLYAGGPSGVARLESWEVRDGGLGAAGDRSAGPGRRGERRVIRLADCVSVLPADGESCPRDTGAFLLTTTERSHLLAAQHRQAWMGPICQLAFPGTGEASSGSTDAQSPKRGLVPMEENSIYSSWQEVGEFPVVVQRTEAATRCQLKGPALLVLGPDAIQLREAKGTQALYSWPYHFLRKFGSDKGVFSFEAGRRCHSGEGLFAFSTPCAPDLCRAVAGAIARQRERLPELTRPQPCPLPRATSLPSLDTPGELREMPPGPEPPTSRKMHLAEPGPQSLPLLLGPEPNDLASGLYASVCKRASGPPGNEHLYENLCVLEASPTLHGGEPEPHEGPGSRSPTTSPIYHNGQDLSWPGPANDSTLEAQYRRLLELDQVEGTGRPDPQAGFKAKLVTLLSRERRKGPAPCDRP
# partner: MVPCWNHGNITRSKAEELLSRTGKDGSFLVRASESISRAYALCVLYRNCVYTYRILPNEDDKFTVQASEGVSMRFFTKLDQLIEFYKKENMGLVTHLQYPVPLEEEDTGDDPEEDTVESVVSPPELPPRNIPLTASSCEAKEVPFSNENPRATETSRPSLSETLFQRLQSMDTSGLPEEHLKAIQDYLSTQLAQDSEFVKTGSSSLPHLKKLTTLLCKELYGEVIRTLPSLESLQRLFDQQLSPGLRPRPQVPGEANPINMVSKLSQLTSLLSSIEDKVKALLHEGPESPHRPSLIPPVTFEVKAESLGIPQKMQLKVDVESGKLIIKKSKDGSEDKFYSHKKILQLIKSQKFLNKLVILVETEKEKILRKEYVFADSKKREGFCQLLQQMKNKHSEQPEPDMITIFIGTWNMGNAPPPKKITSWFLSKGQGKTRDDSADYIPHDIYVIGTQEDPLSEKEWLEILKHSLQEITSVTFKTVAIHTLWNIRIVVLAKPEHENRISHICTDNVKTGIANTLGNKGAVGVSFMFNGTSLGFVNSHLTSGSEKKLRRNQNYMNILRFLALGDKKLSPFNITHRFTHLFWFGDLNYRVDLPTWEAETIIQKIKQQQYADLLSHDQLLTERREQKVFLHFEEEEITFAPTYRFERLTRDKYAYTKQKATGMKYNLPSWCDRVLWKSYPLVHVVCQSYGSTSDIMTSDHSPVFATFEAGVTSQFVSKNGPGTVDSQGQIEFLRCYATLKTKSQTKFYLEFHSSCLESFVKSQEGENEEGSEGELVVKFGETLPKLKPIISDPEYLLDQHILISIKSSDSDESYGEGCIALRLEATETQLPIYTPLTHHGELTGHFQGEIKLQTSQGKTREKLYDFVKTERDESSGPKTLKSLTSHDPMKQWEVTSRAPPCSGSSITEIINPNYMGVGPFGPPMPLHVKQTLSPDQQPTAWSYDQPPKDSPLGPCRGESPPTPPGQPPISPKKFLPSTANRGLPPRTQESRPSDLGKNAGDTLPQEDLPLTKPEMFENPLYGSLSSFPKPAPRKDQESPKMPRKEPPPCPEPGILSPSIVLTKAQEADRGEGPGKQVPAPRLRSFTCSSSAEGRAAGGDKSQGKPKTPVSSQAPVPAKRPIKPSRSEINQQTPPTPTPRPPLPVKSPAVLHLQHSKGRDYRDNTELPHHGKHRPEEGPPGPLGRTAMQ
# Variants of: B1
# Details: with ship1_human INPP5D
row,Variant,effect of a mutation on the interaction
1,R197F,decreasing interaction

# From IntAct's records for PubMed 17290227
